Assay results: the supplement of paper PMC10065799, “High-throughput profiling of sequence recognition by tyrosine kinases and SH2 domains using bacterial peptide display” (eLife, 2023)

Experiments:
AncSZ = assay: phosphorylation enrichment, bacterial display (enrichment ratio); higher = better substrate or ligand; peptides without Tyr show the background
EPHB1 = EPHB1 (UniProt P54762); assay: as above
EPHB2 = EPHB2 (UniProt P29323); assay: as above
FGFR1 = FGFR1 (UniProt P11362); assay: as above
FGFR3 = FGFR3 (UniProt P22607); assay: as above
Fer (mouse) = assay: as above
Fes = Fes (UniProt P07332); assay: as above
Fyn = Fyn (UniProt P06241); assay: as above
Hck = Hck (UniProt P08631); assay: as above
Jak2 = Jak2 (UniProt O60674); assay: as above
MERTK = MERTK (UniProt Q12866); assay: as above
c-Abl (mouse) = assay: as above
c-Src = assay: as above
Grb2 SH2 = Grb2 SH2 (UniProt P62993); assay: SH2 binding enrichment of the phosphorylated peptide, bacterial display (enrichment ratio); higher = better substrate or ligand; peptides without Tyr show the background
SHP2-C SH2 = assay: as above
c-Src SH2 = assay: as above
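Wherever SH2 binding enrichment of the phosphorylated peptide, bacterial display is given: peptide library displayed on the E. coli surface as eCPX fusions, selected cells deep-sequenced, score is each peptide's frequency after selection divided by its frequency in the input.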
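Wherever phosphorylation enrichment, bacterial display is given: 11-residue human phosphosite peptides and single-mutation variants displayed on the E. coli surface, counted by deep sequencing, each peptide's frequency after selection divided by its frequency in the unselected input library; frequency after pTyr selection over input frequency; kinase dosed for 20-30% of maximal phosphorylation in three min.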

Chain of FGFR3 (P22607 whole entry, looked up): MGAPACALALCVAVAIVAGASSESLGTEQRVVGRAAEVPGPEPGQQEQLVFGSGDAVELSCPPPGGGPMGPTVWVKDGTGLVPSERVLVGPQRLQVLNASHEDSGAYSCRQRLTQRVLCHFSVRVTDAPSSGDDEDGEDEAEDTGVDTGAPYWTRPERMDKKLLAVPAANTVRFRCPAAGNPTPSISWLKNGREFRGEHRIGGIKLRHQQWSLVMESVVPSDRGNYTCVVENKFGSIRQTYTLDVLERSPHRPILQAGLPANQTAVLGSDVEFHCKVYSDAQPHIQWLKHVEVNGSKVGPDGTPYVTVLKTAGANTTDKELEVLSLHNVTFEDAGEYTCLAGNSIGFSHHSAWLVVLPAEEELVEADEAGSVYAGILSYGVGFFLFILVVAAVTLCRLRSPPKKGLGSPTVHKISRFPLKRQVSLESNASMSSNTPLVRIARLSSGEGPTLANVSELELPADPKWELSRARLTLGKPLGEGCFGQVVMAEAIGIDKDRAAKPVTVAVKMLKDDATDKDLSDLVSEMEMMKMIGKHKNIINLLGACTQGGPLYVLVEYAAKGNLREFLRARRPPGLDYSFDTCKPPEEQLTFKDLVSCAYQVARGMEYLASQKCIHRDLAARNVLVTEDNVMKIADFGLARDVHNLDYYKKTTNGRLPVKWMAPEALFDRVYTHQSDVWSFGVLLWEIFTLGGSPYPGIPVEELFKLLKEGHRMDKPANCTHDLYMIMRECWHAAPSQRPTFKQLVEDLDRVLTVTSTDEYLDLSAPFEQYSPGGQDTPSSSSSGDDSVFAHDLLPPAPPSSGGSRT
Chain of Fyn (P06241 whole entry, looked up): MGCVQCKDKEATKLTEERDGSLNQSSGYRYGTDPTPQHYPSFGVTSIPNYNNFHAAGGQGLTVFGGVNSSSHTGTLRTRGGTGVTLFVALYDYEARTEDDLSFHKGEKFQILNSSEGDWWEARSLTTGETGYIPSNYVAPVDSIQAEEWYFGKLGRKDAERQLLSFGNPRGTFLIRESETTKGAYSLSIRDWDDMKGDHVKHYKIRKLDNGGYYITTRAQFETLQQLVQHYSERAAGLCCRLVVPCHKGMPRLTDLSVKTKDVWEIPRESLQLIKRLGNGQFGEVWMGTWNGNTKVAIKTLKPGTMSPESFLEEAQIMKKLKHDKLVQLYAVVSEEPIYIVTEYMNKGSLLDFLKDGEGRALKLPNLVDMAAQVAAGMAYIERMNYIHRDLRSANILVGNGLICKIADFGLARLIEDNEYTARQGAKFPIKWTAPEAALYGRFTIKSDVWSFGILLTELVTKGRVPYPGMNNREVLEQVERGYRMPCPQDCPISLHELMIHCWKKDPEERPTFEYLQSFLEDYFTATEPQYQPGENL
Chain of Jak2 (O60674 whole entry, looked up): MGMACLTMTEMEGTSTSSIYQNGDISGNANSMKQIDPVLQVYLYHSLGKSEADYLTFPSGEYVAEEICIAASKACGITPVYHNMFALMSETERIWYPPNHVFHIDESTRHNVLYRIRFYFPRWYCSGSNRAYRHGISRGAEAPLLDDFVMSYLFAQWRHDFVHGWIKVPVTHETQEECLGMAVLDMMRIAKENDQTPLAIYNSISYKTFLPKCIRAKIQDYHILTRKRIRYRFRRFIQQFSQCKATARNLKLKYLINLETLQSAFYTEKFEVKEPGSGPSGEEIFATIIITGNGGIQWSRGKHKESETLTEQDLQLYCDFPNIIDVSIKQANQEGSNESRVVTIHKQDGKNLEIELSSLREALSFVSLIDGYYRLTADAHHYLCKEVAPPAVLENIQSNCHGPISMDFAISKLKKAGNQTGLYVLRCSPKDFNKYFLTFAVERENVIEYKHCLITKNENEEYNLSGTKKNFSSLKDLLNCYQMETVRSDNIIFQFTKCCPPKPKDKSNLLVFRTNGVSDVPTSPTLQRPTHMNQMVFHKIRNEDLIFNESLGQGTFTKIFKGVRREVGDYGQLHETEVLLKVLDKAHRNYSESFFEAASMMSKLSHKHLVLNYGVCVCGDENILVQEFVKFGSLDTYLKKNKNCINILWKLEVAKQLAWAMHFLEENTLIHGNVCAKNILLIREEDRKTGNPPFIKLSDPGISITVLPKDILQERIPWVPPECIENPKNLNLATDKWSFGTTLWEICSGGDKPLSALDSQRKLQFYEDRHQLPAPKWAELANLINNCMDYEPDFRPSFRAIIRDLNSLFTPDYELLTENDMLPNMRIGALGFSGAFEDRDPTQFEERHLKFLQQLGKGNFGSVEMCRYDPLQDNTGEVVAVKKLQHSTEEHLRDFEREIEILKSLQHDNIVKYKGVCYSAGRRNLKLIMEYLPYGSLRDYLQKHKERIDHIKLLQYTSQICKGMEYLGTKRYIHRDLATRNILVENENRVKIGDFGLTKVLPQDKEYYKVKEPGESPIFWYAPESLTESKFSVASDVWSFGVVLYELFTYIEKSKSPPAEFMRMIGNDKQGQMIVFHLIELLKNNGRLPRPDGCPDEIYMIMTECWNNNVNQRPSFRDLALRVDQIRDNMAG
Chain of Fes (P07332 whole entry, looked up): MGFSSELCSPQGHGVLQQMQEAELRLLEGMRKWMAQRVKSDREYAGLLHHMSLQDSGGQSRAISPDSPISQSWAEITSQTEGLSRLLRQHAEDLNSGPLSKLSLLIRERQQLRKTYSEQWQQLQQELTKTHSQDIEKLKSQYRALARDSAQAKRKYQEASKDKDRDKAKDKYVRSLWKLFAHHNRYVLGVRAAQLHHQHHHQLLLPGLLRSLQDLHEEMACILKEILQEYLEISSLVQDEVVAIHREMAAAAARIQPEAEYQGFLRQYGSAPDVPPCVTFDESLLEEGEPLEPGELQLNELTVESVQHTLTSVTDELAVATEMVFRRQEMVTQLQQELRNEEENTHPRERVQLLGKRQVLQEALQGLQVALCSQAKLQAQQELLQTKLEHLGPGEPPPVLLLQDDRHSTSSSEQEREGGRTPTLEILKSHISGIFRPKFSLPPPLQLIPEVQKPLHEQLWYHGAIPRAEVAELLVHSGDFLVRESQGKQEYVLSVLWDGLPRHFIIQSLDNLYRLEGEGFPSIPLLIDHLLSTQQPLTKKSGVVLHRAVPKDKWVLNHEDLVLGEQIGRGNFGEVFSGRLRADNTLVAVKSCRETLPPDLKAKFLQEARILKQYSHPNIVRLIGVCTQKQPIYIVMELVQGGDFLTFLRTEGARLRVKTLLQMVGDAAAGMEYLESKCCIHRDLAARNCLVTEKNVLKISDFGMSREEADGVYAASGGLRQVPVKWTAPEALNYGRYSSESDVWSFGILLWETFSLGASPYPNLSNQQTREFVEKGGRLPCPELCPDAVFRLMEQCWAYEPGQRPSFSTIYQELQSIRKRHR
Chain of EPHB1 (P54762 whole entry, looked up): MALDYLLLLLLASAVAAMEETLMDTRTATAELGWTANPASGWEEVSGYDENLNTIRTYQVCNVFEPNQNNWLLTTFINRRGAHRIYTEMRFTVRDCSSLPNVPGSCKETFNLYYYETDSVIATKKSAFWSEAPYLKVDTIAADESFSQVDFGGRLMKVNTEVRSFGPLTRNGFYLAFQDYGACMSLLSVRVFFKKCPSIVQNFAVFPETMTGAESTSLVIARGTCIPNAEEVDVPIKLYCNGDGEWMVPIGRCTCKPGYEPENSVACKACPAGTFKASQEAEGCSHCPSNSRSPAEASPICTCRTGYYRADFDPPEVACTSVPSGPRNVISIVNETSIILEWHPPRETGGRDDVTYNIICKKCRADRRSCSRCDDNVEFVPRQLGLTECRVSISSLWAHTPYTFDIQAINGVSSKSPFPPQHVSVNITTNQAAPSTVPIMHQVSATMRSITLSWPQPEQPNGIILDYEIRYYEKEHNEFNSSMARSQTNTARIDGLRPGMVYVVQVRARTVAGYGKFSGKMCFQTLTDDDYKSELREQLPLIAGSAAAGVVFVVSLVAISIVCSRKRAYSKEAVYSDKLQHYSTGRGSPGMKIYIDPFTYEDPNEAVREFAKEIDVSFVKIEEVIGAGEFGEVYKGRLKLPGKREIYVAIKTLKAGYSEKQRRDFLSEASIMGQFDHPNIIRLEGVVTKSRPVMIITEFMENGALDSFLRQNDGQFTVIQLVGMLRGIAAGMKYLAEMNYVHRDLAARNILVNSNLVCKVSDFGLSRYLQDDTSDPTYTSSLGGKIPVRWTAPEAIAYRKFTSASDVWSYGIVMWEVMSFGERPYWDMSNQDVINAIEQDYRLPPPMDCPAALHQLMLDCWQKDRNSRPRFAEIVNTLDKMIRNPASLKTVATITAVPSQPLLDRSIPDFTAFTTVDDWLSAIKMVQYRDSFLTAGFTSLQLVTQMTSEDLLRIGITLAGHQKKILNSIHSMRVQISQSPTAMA
Chain of FGFR1 (P11362 whole entry, looked up): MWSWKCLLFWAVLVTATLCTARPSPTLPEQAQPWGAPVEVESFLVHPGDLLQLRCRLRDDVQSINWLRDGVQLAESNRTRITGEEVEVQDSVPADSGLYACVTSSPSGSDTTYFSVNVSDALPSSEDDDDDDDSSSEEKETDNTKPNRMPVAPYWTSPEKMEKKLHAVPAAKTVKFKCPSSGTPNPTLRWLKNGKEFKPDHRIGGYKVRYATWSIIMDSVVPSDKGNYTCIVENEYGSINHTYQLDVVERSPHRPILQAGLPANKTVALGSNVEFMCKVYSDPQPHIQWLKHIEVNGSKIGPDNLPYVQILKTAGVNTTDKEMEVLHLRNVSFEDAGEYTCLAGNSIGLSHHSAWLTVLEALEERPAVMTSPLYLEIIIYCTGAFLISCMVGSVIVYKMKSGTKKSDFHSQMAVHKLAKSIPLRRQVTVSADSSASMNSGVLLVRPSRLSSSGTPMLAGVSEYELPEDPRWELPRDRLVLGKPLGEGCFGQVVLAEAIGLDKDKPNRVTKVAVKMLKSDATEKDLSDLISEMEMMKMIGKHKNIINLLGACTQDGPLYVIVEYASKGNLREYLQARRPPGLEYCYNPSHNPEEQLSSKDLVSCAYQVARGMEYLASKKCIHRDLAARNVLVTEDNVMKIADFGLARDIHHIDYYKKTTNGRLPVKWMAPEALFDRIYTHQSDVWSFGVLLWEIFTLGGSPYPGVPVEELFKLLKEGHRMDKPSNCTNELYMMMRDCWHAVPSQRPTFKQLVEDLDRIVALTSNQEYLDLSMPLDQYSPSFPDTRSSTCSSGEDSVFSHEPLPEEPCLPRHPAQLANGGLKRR

Sequence	SH2 binding enrichment (Grb2 SH2)	SH2 binding enrichment (SHP2-C SH2)	SH2 binding enrichment (c-Src SH2)	phosphorylation enrichment (AncSZ)	phosphorylation enrichment (EPHB1)	phosphorylation enrichment (EPHB2)	phosphorylation enrichment (FGFR1)	phosphorylation enrichment (FGFR3)	phosphorylation enrichment (Fer (mouse))	phosphorylation enrichment (Fes)	phosphorylation enrichment (Fyn)	phosphorylation enrichment (Hck)	phosphorylation enrichment (Jak2)	phosphorylation enrichment (MERTK)	phosphorylation enrichment (c-Abl (mouse))	phosphorylation enrichment (c-Src)
VDLIVYLRTNP [TK2_Y181]	0.709	0.623	0.468	1.12	0.65	0.589	0.358	0.711	0.432	1.26	0.434	0.352	1.06	0.328	0.875	0.364
VEFAKYGSLQG [RET_Y809_R813Q_YF]	0.745	0.803	0.382	0.663	0.536	0.471	0.43	0.578	0.44	0.9	0.556	0.741	0.846	0.384	0.619	0.546
VGTKRYMAPEV [ACVRL1_Y375]	0.804	0.616	0.511	0.611	0.351	0.428	0.413	0.446	0.395	0.61	0.361	0.407	0.637	0.389	0.532	0.373
VHNLDYYKQTT [FGFR3_Y647_K650Q]	0.984	0.752	0.49	0.934	0.686	0.617	1.36	1.34	0.525	0.955	0.586	0.485	0.945	0.607	0.555	0.697
VKKNRYKDILP [PTPN12_Y64]	0.753	0.704	0.766	0.709	0.47	0.471	0.519	0.769	0.511	0.988	0.466	0.507	0.839	0.592	0.874	0.653
VLTSKYHGGGG [HBA1_Y141_R142H]	0.835	0.715	0.522	0.475	0.336	0.365	0.772	0.304	0.315	0.549	0.364	0.391	0.509	0.494	0.617	0.407
VNFGAYINFFK [GLB1_Y488_D491Y_YF]	0.918	0.784	0.611	1.38	0.586	0.558	0.663	0.963	0.624	1.75	0.441	0.495	1.87	0.57	1.49	0.717
VNKLVYENING [FRS2_Y306]	23.9	2.03	6.33	0.665	4.71	0.75	0.52	0.454	3.63	0.8	0.95	2.67	0.539	1.64	0.524	1.78
VQDPAYLRDID [OPRK1_Y369]	1.14	1.04	0.564	1.16	0.45	0.657	0.533	0.708	0.465	1.13	0.425	0.567	1.24	0.468	0.905	0.425
VSYDEYRYRSV [CFTR_Y515]	0.978	0.822	1.45	0.754	0.485	0.417	0.455	0.484	0.381	0.942	0.633	0.586	0.71	0.428	0.667	0.743
VTVLDYDKTGK [SYT1_Y365_I368T]	0.737	0.511	0.408	0.591	0.365	0.46	0.463	0.439	0.411	0.712	0.442	0.426	0.517	0.335	0.452	0.398
VVEYGYEFFAK [PPP1CB_Y254_D252Y]	0.942	0.675	0.946	2.57	0.798	0.82	0.762	0.995	0.835	1.56	0.609	0.72	1.47	0.601	1.09	0.719
VVIMLYGVDSR [PKD1_Y3143_G3139V]	0.981	0.826	0.645	1.29	0.879	0.72	0.545	0.924	0.682	1.57	0.592	0.594	1.35	0.399	1.04	0.524
VVLVSYVPSSQ [SH2B1_Y624]	1.51	1.4	0.95	0.784	0.557	0.454	0.506	0.703	0.388	0.874	0.452	0.433	0.751	0.424	0.614	0.336
VYAADYYKLLG [ROR2_Y645]	0.981	0.46	0.789	1.28	2.38	1.78	12.8	10.1	0.516	0.944	1.01	1.28	7.96	5.31	1.99	2.26
VYYYSYLLKNH [PTEN_Y180]	0.965	0.941	0.847	1.48	1.72	1.07	4.67	3.68	0.82	1.33	1.12	1.74	2.14	3.89	2.84	1.63
WASGIYFVPKG [APBB1IP_Y340_R335W_YF]	1.29	1.17	0.848	2.81	10.1	10	4.77	4.26	2.87	0.993	7.44	7.16	7.69	9	28.7	5.32
WKKEIYEESST [MOCS2_Y170]	0.776	0.535	0.448	1.04	0.422	0.603	2.85	0.661	0.471	1.17	0.424	0.488	1.18	0.378	0.83	0.485
YAADYYKLLGN [ROR2_Y646]	0.683	0.467	0.504	1.1	0.963	0.863	12.5	9.3	0.634	0.993	0.452	0.808	4.53	1.47	0.769	0.908

Second part, led by results:

SH2 binding enrichment (Grb2 SH2)	SH2 binding enrichment (SHP2-C SH2)	SH2 binding enrichment (c-Src SH2)	Sequence	phosphorylation enrichment (AncSZ)	phosphorylation enrichment (EPHB1)	phosphorylation enrichment (EPHB2)	phosphorylation enrichment (FGFR1)	phosphorylation enrichment (FGFR3)	phosphorylation enrichment (Fer (mouse))	phosphorylation enrichment (Fes)	phosphorylation enrichment (Fyn)	phosphorylation enrichment (Hck)	phosphorylation enrichment (Jak2)	phosphorylation enrichment (MERTK)	phosphorylation enrichment (c-Abl (mouse))	phosphorylation enrichment (c-Src)
0.977	0.805	0.813	VGTKRYMALEV [ACVRL1_Y375_P378L]	0.691	0.549	0.451	0.472	0.541	0.418	0.75	0.429	0.458	0.557	0.448	0.709	0.486
0.573	0.522	0.496	VGTKRYMAPDV [ACVRL1_Y375_E379D]	0.424	0.42	0.402	0.296	0.412	0.35	0.491	0.306	0.334	0.415	0.277	0.494	0.293
0.894	0.861	4.23	VIESSYTSADG [DHCR7_Y382_C380S]	0.892	0.468	0.596	0.531	0.627	0.519	0.961	0.551	0.476	0.873	0.596	0.618	0.546
0.828	0.547	0.385	VILARYGPAWR [CYP2D6_Y124_F120I]	1.09	0.513	0.614	0.608	0.608	0.407	1.09	0.527	0.602	0.808	0.482	0.603	0.503
0.931	0.569	0.946	VKANTYEKFWP [GATM_Y100_YF]	0.627	0.74	0.374	0.317	0.487	0.595	0.793	1.47	1.07	0.717	1.8	0.704	2.69
0.541	0.364	0.483	VKRNRYKDILP [PTPN12_Y64_K61R]	0.65	0.575	0.695	0.463	0.47	0.49	0.561	0.689	0.579	0.528	0.553	0.514	0.628
1.08	0.884	1.41	VLRRVYVDFEG [KMT2B_Y1707]	0.842	0.424	0.518	0.478	0.613	0.403	0.909	0.472	0.502	0.774	0.435	0.629	0.602
1.03	0.691	0.557	VLTPKYRGGGG [HBA1_Y141_S139P]	0.498	0.328	0.372	0.348	0.413	0.364	0.464	0.363	0.32	0.335	0.35	0.421	0.34
0.651	0.715	0.408	VNFDDYTVNLG [GFPT1_Y367]	1.39	0.787	0.691	0.705	0.741	0.493	1.2	0.833	0.528	1.39	0.487	0.69	1.19
0.893	0.568	0.573	VPVDGYISGLL [PAK6_Y81_M76V]	0.911	0.75	0.85	0.568	0.656	0.559	1.01	0.519	0.542	1.18	0.602	0.745	0.657
0.846	0.635	0.6	VPVNGYQPVTA [ROR2_Y824_P828T]	0.492	0.392	0.414	0.375	0.535	0.336	0.535	0.541	0.348	0.494	0.392	0.516	0.309
0.729	0.564	0.547	VTAALYGCLYE [BTD_Y536_R538C]	1.34	1.34	1.47	0.558	0.825	2.67	1.43	5.14	4.01	1.24	2.11	0.954	4.26
1.78	1.98	1.32	VTHKEYFIFLE [CAMKV_Y95_R92H]	1.08	1.13	1.36	2.2	1.87	0.596	1.36	0.623	0.54	1.29	0.516	0.755	1.29
0.992	0.707	0.49	WQQQSYLDSEI [CTNNB1_Y30_G34E]	0.792	0.512	0.557	0.397	0.669	0.514	0.854	0.437	0.444	0.96	0.377	0.581	0.421
